Test results as given in patent publication US20260070974A1 (NONA BIOSCIENCES SUZHOU, published 2026).
“And” between values parts separate entries of the source, which are not always exact repeats. Equal values may be shown once.

T1: cynomolgus monkey Siglec-15 on CHO-K1/cynomolgus monkey Siglec-15 cells (cynomolgus monkey, UniProt Q6ZMC9 20-328 (human entry))
T1 chain: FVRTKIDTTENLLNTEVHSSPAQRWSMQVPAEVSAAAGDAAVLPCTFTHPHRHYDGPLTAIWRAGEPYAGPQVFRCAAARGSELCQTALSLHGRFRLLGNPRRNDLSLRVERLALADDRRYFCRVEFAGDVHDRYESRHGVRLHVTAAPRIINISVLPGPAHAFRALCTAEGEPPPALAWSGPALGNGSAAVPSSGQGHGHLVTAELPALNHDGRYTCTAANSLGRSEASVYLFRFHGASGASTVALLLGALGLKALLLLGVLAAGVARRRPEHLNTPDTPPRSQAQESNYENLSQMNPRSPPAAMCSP

T2: human Siglec-2-his protein (Acrobiosystems, Cat CD2-H52H8) (human, UniProt P20273 20-687)
T2 construct: Bought protein; not shown: his tag
T2 sequence (looked up): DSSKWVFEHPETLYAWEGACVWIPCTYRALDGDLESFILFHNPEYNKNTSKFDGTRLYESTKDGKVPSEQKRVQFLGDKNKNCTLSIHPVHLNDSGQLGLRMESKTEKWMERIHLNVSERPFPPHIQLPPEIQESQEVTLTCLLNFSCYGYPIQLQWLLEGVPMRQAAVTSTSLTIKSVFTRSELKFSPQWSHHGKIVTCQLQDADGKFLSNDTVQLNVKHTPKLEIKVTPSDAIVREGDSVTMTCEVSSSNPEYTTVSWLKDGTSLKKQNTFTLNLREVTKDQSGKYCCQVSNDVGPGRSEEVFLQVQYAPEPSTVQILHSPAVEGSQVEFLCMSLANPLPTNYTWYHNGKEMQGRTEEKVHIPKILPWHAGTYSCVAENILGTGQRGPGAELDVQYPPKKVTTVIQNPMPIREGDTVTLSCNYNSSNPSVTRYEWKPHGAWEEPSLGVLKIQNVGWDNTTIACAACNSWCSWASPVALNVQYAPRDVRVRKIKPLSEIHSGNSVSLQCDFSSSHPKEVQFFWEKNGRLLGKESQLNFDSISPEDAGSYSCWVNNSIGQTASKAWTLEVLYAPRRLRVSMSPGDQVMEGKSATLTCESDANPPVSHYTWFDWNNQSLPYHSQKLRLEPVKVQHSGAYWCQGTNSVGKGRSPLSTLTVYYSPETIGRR


Key:
[1] = molecular target: T3, human PD-L1/B7-H1-his protein (Acrobiosystems, Cat PD1-H5229) (human, UniProt Q9NZQ7 19-238); experiment: ELISA on coated human PD-L1/B7-H1-his, antibody at 100 nM and 10 nM, goat anti-human IgG-HRP, OD450
T3 construct: Bought protein; not shown: his tag
T3 sequence (Q9NZQ7 19-238 limits assumed): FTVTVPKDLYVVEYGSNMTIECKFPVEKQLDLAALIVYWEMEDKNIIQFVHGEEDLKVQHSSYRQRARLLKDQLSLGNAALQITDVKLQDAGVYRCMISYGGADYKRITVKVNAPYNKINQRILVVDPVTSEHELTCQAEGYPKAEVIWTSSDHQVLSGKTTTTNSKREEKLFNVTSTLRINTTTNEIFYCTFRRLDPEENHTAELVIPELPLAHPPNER
Experimental: (§1) Human Siglec-15 ECD-his protein (Acrobiosystems, Cat SG5-H52H3), human Siglec-2-his protein (Acrobiosystems, Cat CD2-H52H8), human Siglec-4a-his protein (Acrobiosystems, Cat MAG-H52H8), human Siglec-3-his protein (Acrobiosystems, Cat CD3-H5226), human Siglec-10-his protein (Acrobiosystems, Cat SIO-H52H9), and human PD-L1/B7-H1-his protein (Acrobiosystems, Cat PD1-H5229), each at 1 μg/mL and dissolved in PBS, were each added to an ELISA plate at 100 μL/well for coating and the plate was incubated overnight at 4° C. The ELISA plate was then blocked with PBST (PBS+0.05% Tween 20) containing 2% BSA at 200 μL/well and incubated at 37° C. for 1 h. The ELISA plate was washed 4 times with PBST. The anti-Siglec-15 antibody diluted in a gradient (concentrations: 100 nM and 10 nM) was added to the ELISA plate at 100 μL/well and the plate was incubated at 37° C. for 1 h. The ELISA plate was washed 4 times with PBST. The goat anti-human IgG (H+L)-HRP (1:5000, Jackson, Cat 109-035-088) was added at 100 μL/well and the plate was incubated at 37° C. for 1 h. The ELISA plate was washed 4 times with PBST. The TMB substrate (Biopanda, Cat TMB-S-003) was added at 100 μL/well, and the plate was incubated at room temperature for 5 min, and then the stop buffer (Solarbio, Cat #: C1058) was added at 100 μL/well to stop the reaction.

[2] = molecular target: T1, cynomolgus monkey Siglec-15 on …; experiment: flow cytometry on CHO-K1/cynomolgus monkey Siglec-15 cells
Experimental: cDNAs encoding cynomolgus monkey Siglec-15 (the amino acid sequence of which is set forth in SEQ ID NO: 155) were obtained by gene synthesis and cloned into the expression vector pcDNA3.1, and then the expression vector was transfected into CHO-K1 cells to construct CHO-K1/cynomolgus monkey Siglec-15 cells expressing cynomolgus monkey Siglec-15. CHO-K1/cynomolgus monkey Siglec-15 cells were adjusted to a density of 1×10⁶/mL with PBS, and the cell suspension was added to a 96-well V-bottom plate at 100 µL/well. The 96-well V-bottom plate was centrifuged at 1000 rpm for 5 min and washed once with PBS+2% FBS. The cells were resuspended in 100 μL of antibody diluted in a gradient (5-fold dilution, starting concentration: 500 nM) and incubated at 4° C. for 1 h, and PR300066 and hIgG1 were used as positive control and negative control, respectively. After 1 h, the cells were washed twice with PBS+2% FBS. The cells were incubated with 100 μL of Alexa Fluor 488 goat anti-human IgG (Jackson, Cat #: 109-545-098) at 4° C. for 1 h in the dark and then washed twice with PBS+2% FBS. The cells were then resuspended in 200 μL of PBS+2% FBS. The fluorescence intensity of the cells was analyzed using a BD FACS Canto™ II flow cytometer.

[3] = molecular target: T2, human Siglec-2-his protein …; experiment: ELISA on coated human Siglec-2-his, antibody at 100 nM and 10 nM, goat anti-human IgG-HRP, OD450
Experimental: as §1

Row | binding result [1] | EC50 [2] | Maximum (MFI) [2] | binding result [3] | Binder
1 | no binding (tested: 100 nM) | 1.36 nM | 5420 MFI | no binding (tested: 100 nM) | PR301289 (antibody, human IgG1, kappa, V domains shown, Parent of the PTM variants PR301289-1 and -2) VH: QVQLVQSGAEVKKPGASVKVSCRASGYTFTSYDINWVRQATGQGLEWMGWMNPHSGDTGYAQNFQGRVTMTWNTSISTAYMELSSLRSEDTAVYYCARRRVGVYYYGMDVWGQGTTVTVSS VL: ENVLTQSPGTLSLSPGERATLSCRASQSVSSSYFGWYQQKPGQAPRLLIYGASSRATGIPDRFSGSGSGTDFTLTISRLEPEDFAVYYCQQYGSSPITFGQGTRLEIKR
2 | no binding (tested: 100 nM) | 3.39 nM | 5860 MFI | no binding (tested: 100 nM) | PR301286 (antibody, human IgG1, kappa, V domains shown, Parent of the PTM variants PR301286-1, -3, -5, -6, -7) VH: QVQLVESGGGVVQPGKSLRLSCAASGFTFSSYGMHWVRQAPGKGLEWVAVIWIDGSNRYYAASVKGRFTISRDNSKNTLYLQMNSLRAEDTAVYYCTRGYGDYAYVMDVWGQGASVTVSS VL: DIVMTQSPLSLPVTPGEPASISCRSSQSLLPGNGYNYLDWYLQKPGQSPQLLIYLGSNRASGVPDRFSGSGSGTDFTLKISRVEAEDVGIYYCMQALQSPLTFGGGTKVEIKR
3 | no binding (tested: 100 nM) | 0.889 nM | 5660 MFI | no binding (tested: 100 nM) | PR301285 (antibody, human IgG1, kappa, V domains shown) VH: QVQLQESGPGLVKPSETLSLTCTVSGGSMISYYWSWLRQPPGKGLEWIGYIYYSGNTNYNPSLKSRITIAVDTSKNQFSLKLNSVTAADTAVYYCARERELHPYYFDYWGQGTLVTVSS VL: DIQLTQSPSFLSASVGDRVTITCRASQGIDNYLAWYQQKPGKAPKVLIYAASTLQSGVPSRFSGSGSGTEFTLTISSLQPEDFATYYCQQLNSYPLTFGGGTKVEIKR
4 | no binding (tested: 100 nM) | 1.5 nM and 2.19 nM | – | no binding (tested: 100 nM) | PR300066 (Tab) (antibody, human IgG1, kappa, V domains shown, variable region from clone 5G12 of WO 2018/057735A1, on human IgG1/kappa constant regions; also called 5G12) VH: QVQLQQPGAELVKPGASVKMSCKASGYTFTSYWITWVIQRPGQGLEWIGDIYCGSDTMHYNEKFKNKATLTVDTSSSTAYMQLSSLTSEDSAVYYCARWWDYGSSYDYFDYWGQGTTLTVSS VL: DIKMTQSPSSMYASLGERVTITCKASQDINSYLSWFQQKPGKSPKTLIYRANRLVDGVPSRFSGSGSGQDYSLTISSLEYEDMGIYYCLQYDEFPYTFGGGTKLEIKR
